Assay results from the array DNA melting data of Ke et al..

Assay: melting temperature; melt of duplexes
Conditions: sodium 0.0675 M; strand 1 µM

| Substance | Tm |
| --- | --- |
| CGACGTGCATGATGTGCTG+CAGCACATTCAGCACGTCG ((((((((...((((((((+))))))))...)))))))) | 51.1 °C |
| CGACGTGCTAAATGTGCTG+CAGCACATGGTGCACGTCG ((((((((...((((((((+))))))))...)))))))) | 49.9 °C |
| CGACGTGCTTTATGTGCTG+CAGCACATGTCGCACGTCG ((((((((...((((((((+))))))))...)))))))) | 47.8 °C |
| CGACGTGCACGATGTGCTG+CAGCACATCTTGCACGTCG (((((((((.(((((((((+))))))))).))))))))) | 55.7 °C |
| CGACGTGCGCTATGTGCTG+CAGCACATCCCGCACGTCG (((((((((..((((((((+))))))))..))))))))) | 52.1 °C |
| CGACGTGCACTATGTGCTG+CAGCACATTCCGCACGTCG ((((((((...((((((((+))))))))...)))))))) | 42.2 °C |
| CGACGTGCGACATGTGCTG+CAGCACATCTGGCACGTCG ((((((((.(.((((((((+)))))))).).)))))))) | 49 °C |
| CGACGTGCTTGATGTGCTG+CAGCACATCGGGCACGTCG ((((((((..(((((((((+)))))))))..)))))))) | 56.8 °C |
| CGACGTGCGGCATGTGCTG+CAGCACATATAGCACGTCG ((((((((...((((((((+))))))))...)))))))) | 54.7 °C |
| CGACGTGCCATATGTGCTG+CAGCACATAACGCACGTCG ((((((((..(((((((((+)))))))))..)))))))) | 49.1 °C |
| CGACGTGCTAGATGTGCTG+CAGCACATGCGGCACGTCG ((((((((...((((((((+))))))))...)))))))) | 50.3 °C |
| CGACGTGCGTTATGTGCTG+CAGCACATCGGGCACGTCG ((((((((...((((((((+))))))))...)))))))) | 48.6 °C |
| CGACGTGCGAGATGTGCTG+CAGCACATCACGCACGTCG (((((((((.(((((((((+))))))))).))))))))) | 61.4 °C |
| CGACGTGCCGCATGTGCTG+CAGCACATTCGGCACGTCG ((((((((((.((((((((+)))))))).)))))))))) | 59.1 °C |
| CGACGTGCGACATGTGCTG+CAGCACATAGTGCACGTCG ((((((((...((((((((+))))))))...)))))))) | 48.8 °C |
| CGACGTGCAAAATGTGCTG+CAGCACATCCGGCACGTCG ((((((((...((((((((+))))))))...)))))))) | 49.1 °C |
| CGACGTGCAATATGTGCTG+CAGCACATAATGCACGTCG (((((((((.(((((((((+))))))))).))))))))) | 54.6 °C |
| CGACGTGCTGAATGTGCTG+CAGCACATCAGGCACGTCG ((((((((...((((((((+))))))))...)))))))) | 53.5 °C |
| CGACGTGCTAGATGTGCTG+CAGCACATCCAGCACGTCG (((((((((.(((((((((+))))))))).))))))))) | 56.1 °C |
| CGACGTGCTACATGTGCTG+CAGCACATATGGCACGTCG ((((((((.(.((((((((+)))))))).).)))))))) | 51.3 °C |
| CGACGTGCTGTATGTGCTG+CAGCACATGCCGCACGTCG ((((((((.(.((((((((+)))))))).).)))))))) | 52.8 °C |
| CGACGTGCAGGATGTGCTG+CAGCACATAGTGCACGTCG (((((((((..((((((((+))))))))..))))))))) | 50.6 °C |
| CGACGTGCTCTATGTGCTG+CAGCACATAGGGCACGTCG ((((((((.((((((((((+)))))))))).)))))))) | 58.4 °C |
| CGACGTGCCTGATGTGCTG+CAGCACATTACGCACGTCG ((((((((.(.((((((((+)))))))).).)))))))) | 49 °C |

| Substance | Tm |
| --- | --- |
| CGACGTGCGGCATGTGCTG+CAGCACATGACGCACGTCG (((((((((.(((((((((+))))))))).))))))))) | 64 °C |
| CGACGTGCGCCATGTGCTG+CAGCACATTGCGCACGTCG ((((((((((.((((((((+)))))))).)))))))))) | 59.3 °C |
| CGACGTGCACGATGTGCTG+CAGCACATCATGCACGTCG (((((((((.(((((((((+))))))))).))))))))) | 55.3 °C |
| CGACGTGCGAAATGTGCTG+CAGCACATTGGGCACGTCG ((((((((..(((((((((+)))))))))..)))))))) | 54.5 °C |
| CGACGTGCGAAATGTGCTG+CAGCACATCAGGCACGTCG ((((((((...((((((((+))))))))...)))))))) | 49.7 °C |
| CGACGTGCATTATGTGCTG+CAGCACATAGCGCACGTCG ((((((((..(((((((((+)))))))))..)))))))) | 49.4 °C |
| CGACGTGCATTATGTGCTG+CAGCACATAGGGCACGTCG ((((((((..(((((((((+)))))))))..)))))))) | 52 °C |
| CGACGTGCAAGATGTGCTG+CAGCACATTAGGCACGTCG ((((((((...((((((((+))))))))...)))))))) | 51.3 °C |
| CGACGTGCAACATGTGCTG+CAGCACATATTGCACGTCG ((((((((((.((((((((+)))))))).)))))))))) | 54.3 °C |
| CGACGTGCTTTATGTGCTG+CAGCACATTGTGCACGTCG ((((((((...((((((((+))))))))...)))))))) | 45.1 °C |
| CGACGTGCTCGATGTGCTG+CAGCACATCATGCACGTCG ((((((((..(((((((((+)))))))))..)))))))) | 54.1 °C |
| CGACGTGCGACATGTGCTG+CAGCACATGGCGCACGTCG (((((((((.(((((((((+))))))))).))))))))) | 65.2 °C |
| CGACGTGCCGAATGTGCTG+CAGCACATACGGCACGTCG ((((((((((.((((((((+)))))))).)))))))))) | 60.1 °C |
| CGACGTGCCCAATGTGCTG+CAGCACATCAGGCACGTCG (((((((((..((((((((+))))))))..))))))))) | 53.9 °C |
| CGACGTGCCCAATGTGCTG+CAGCACATGTTGCACGTCG ((((((((...((((((((+))))))))...)))))))) | 49.4 °C |
| CGACGTGCGGTATGTGCTG+CAGCACATTTGGCACGTCG ((((((((...((((((((+))))))))...)))))))) | 49.9 °C |
| CGACGTGCGCCATGTGCTG+CAGCACATAGCGCACGTCG ((((((((((.((((((((+)))))))).)))))))))) | 58.9 °C |
| CGACGTGCTCTATGTGCTG+CAGCACATACGGCACGTCG ((((((((..(((((((((+)))))))))..)))))))) | 49.7 °C |
| CGACGTGCCCGATGTGCTG+CAGCACATGTTGCACGTCG ((((((((...((((((((+))))))))...)))))))) | 48.1 °C |
| CGACGTGCGCGATGTGCTG+CAGCACATGATGCACGTCG ((((((((...((((((((+))))))))...)))))))) | 51 °C |
| CGACGTGCTCAATGTGCTG+CAGCACATCAGGCACGTCG ((((((((...((((((((+))))))))...)))))))) | 50.5 °C |
| CGACGTGCCAAATGTGCTG+CAGCACATCGCGCACGTCG ((((((((...((((((((+))))))))...)))))))) | 48.2 °C |
| CGACGTGCTGGATGTGCTG+CAGCACATTTAGCACGTCG (((((((((..((((((((+))))))))..))))))))) | 54 °C |
| CGACGTGCAGAATGTGCTG+CAGCACATGCTGCACGTCG ((((((((((.((((((((+)))))))).)))))))))) | 58.6 °C |

| Substance | Tm |
| --- | --- |
| CGACGTGCCAAATGTGCTG+CAGCACATGGAGCACGTCG ((((((((...((((((((+))))))))...)))))))) | 52.4 °C |
| CGACGTGCGCAATGTGCTG+CAGCACATGGTGCACGTCG ((((((((.(.((((((((+)))))))).).)))))))) | 54.3 °C |
| CGACGTGCTGCATGTGCTG+CAGCACATTTGGCACGTCG ((((((((...((((((((+))))))))...)))))))) | 49.1 °C |
| CGACGTGCCTCATGTGCTG+CAGCACATTTCGCACGTCG ((((((((...((((((((+))))))))...)))))))) | 46.5 °C |
| CGACGTGCCTAATGTGCTG+CAGCACATGCGGCACGTCG (((((((((..((((((((+))))))))..))))))))) | 53.3 °C |
| CGACGTGCACCATGTGCTG+CAGCACATGATGCACGTCG (((((((((.(((((((((+))))))))).))))))))) | 56.5 °C |
| CGACGTGCTCGATGTGCTG+CAGCACATCGCGCACGTCG ((((((((.((((((((((+)))))))))).)))))))) | 59.6 °C |
| CGACGTGCACCATGTGCTG+CAGCACATTGGGCACGTCG ((((((((.(.((((((((+)))))))).).)))))))) | 52.5 °C |
| CGACGTGCCCAATGTGCTG+CAGCACATAGCGCACGTCG ((((((((.(.((((((((+)))))))).).)))))))) | 48.9 °C |
| CGACGTGCAGGATGTGCTG+CAGCACATAATGCACGTCG (((((((((..((((((((+))))))))..))))))))) | 55.2 °C |
| CGACGTGCAAGATGTGCTG+CAGCACATTGCGCACGTCG ((((((((...((((((((+))))))))...)))))))) | 52.9 °C |
| CGACGTGCAGAATGTGCTG+CAGCACATATTGCACGTCG (((((((((..((((((((+))))))))..))))))))) | 50.5 °C |
| CGACGTGCGGAATGTGCTG+CAGCACATCCGGCACGTCG ((((((((.(.((((((((+)))))))).).)))))))) | 55.7 °C |
| CGACGTGCCCTATGTGCTG+CAGCACATCCAGCACGTCG ((((((((...((((((((+))))))))...)))))))) | 47.7 °C |
| CGACGTGCCAAATGTGCTG+CAGCACATCCGGCACGTCG (((((((((..((((((((+))))))))..))))))))) | 53.3 °C |
| CGACGTGCCTGATGTGCTG+CAGCACATCCTGCACGTCG ((((((((..(((((((((+)))))))))..)))))))) | 53.1 °C |
| CGACGTGCCAGATGTGCTG+CAGCACATGTGGCACGTCG ((((((((((.((((((((+)))))))).)))))))))) | 60 °C |
| CGACGTGCGCCATGTGCTG+CAGCACATCGGGCACGTCG ((((((((.(.((((((((+)))))))).).)))))))) | 51.2 °C |
| CGACGTGCGACATGTGCTG+CAGCACATGGAGCACGTCG ((((((((..(((((((((+)))))))))..)))))))) | 63.5 °C |
| CGACGTGCGTCATGTGCTG+CAGCACATTGGGCACGTCG ((((((((...((((((((+))))))))...)))))))) | 49.9 °C |
| CGACGTGCCATATGTGCTG+CAGCACATCACGCACGTCG ((((((((...((((((((+))))))))...)))))))) | 47.6 °C |
| CGACGTGCAGGATGTGCTG+CAGCACATGCTGCACGTCG ((((((((((.((((((((+)))))))).)))))))))) | 59.6 °C |
| CGACGTGCGGGATGTGCTG+CAGCACATAGCGCACGTCG (((((((((..((((((((+))))))))..))))))))) | 57.4 °C |
| CGACGTGCGGGATGTGCTG+CAGCACATCCCGCACGTCG (((((((((((((((((((+))))))))))))))))))) | 67.7 °C |
